Data from US11260115B1, “Peptides and combination of peptides for use in immunotherapy against CLL and other cancers” (immatics biotechnologies GmbH, priority 2015, dated 2022).

Biological target: HLA-A*02:01 (Homo sapiens, UniProt P04439, D140Y/D185E/D98H/E176V/E277Q/G131W/G231S/I119V/I121R/I166T/I218V/L300P/L318F/N151K/N90K/P208A/P217A/Q86G/Q94H/R138H/R169H/T345S)
Assay: MHC binding assay (UV-ligand exchange, β2m ELISA, peptide exchange yield)
Details: binding to HLA-A*02:01
How it was run: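 Peptide-HLA-A*02:01 complexes formed by UV-mediated exchange of a photocleavable ligand; exchange yield measured by streptavidin-capture ELISA detecting β2m with HRP anti-β2m, TMB read at 450 nm. Refolded monomer standards 15-500 ng/ml; samples diluted 100-fold.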

Row | Substance | Peptide Exchange (MHC class I binding score, peptide exchange yield)
1 | 216 (WLAGDVPAA; listed as Homo sapiens) [compound 216] | “+++” (>50 = +++)
2 | 217 (ALDEPPYLTV; listed as Homo sapiens) [compound 217] | “+++” (>50 = +++)
3 | 218 (ALGEEWKGYVV; listed as Homo sapiens) [compound 218] | “++” (>20% = ++)
4 | 219 (ALLNLLESA; listed as Homo sapiens) [compound 219] | “+++” (>50 = +++)
5 | 220 (ALPEILFAKV; listed as Homo sapiens) [compound 220] | “+++” (>50 = +++)
6 | 221 (ALVSTIIMV; listed as Homo sapiens) [compound 221] | “+” (>10% = +)
7 | 222 (ALWELSLKI; listed as Homo sapiens) [compound 222] | “+++” (>50 = +++)
8 | 223 (ALWVSQPPEI; listed as Homo sapiens) [compound 223] | “+++” (>50 = +++)
9 | 224 (AMEALVVEV; listed as Homo sapiens) [compound 224] | “+++” (>50 = +++)
10 | 225 (ILQERELLPV; listed as Homo sapiens) [compound 225] | “+++” (>50 = +++)
11 | 226 (AMNISVPQV; listed as Homo sapiens) [compound 226] | “+++” (>50 = +++)
12 | 227 (FLAEASVMTQL; listed as Homo sapiens) [compound 227] | “+++” (>50 = +++)
13 | 228 (FLGGLSPGV; listed as Homo sapiens) [compound 228] | “+++” (>50 = +++)
14 | 229 (FLLNLQNCHL; listed as Homo sapiens) [compound 229] | “++++” (>75% = ++++)
15 | 230 (FLQDSKVIFV; listed as Homo sapiens) [compound 230] | “+++” (>50 = +++)
16 | 231 (FLYIRQLAI; listed as Homo sapiens) [compound 231] | “+++” (>50 = +++)
17 | 232 (FMHQIIDQV; listed as Homo sapiens) [compound 232] | “++++” (>75% = ++++)
18 | 233 (GIIDINVRL; listed as Homo sapiens) [compound 233] | “++” (>20% = ++)
19 | 234 (GLDDAEYAL; listed as Homo sapiens) [compound 234] | “++” (>20% = ++)
20 | 235 (GLDDLLLFL; listed as Homo sapiens) [compound 235] | “+++” (>50 = +++)
21 | 236 (GLLESGRHYL; listed as Homo sapiens) [compound 236] | “+++” (>50 = +++)
22 | 237 (GLQENLDVVV; listed as Homo sapiens) [compound 237] | “++++” (>75% = ++++)
23 | 238 (GLVETELQL; listed as Homo sapiens) [compound 238] | “+++” (>50 = +++)
24 | 239 (ILAGEMLSV; listed as Homo sapiens) [compound 239] | “+++” (>50 = +++)
25 | 241 (ILGDILLKV; listed as Homo sapiens) [compound 241] | “+++” (>50 = +++)

Row | Substance | Peptide Exchange (MHC class I binding score, peptide exchange yield)
26 | 242 (ILLGIQELL; listed as Homo sapiens) [compound 242] | “+++” (>50 = +++)
27 | 243 (ILPTLEKELFL; listed as Homo sapiens) [compound 243] | “+++” (>50 = +++)
28 | 244 (ILQALAVHL; listed as Homo sapiens) [compound 244] | “+++” (>50 = +++)
29 | 245 (KIMDYSLLLGV; listed as Homo sapiens) [compound 245] | “++++” (>75% = ++++)
30 | 246 (KLDETGVAL; listed as Homo sapiens) [compound 246] | “++” (>20% = ++)
31 | 247 (KLKDRLPSI; listed as Homo sapiens) [compound 247] | “++” (>20% = ++)
32 | 248 (KTVEPPISQV; listed as Homo sapiens) [compound 248] | “++” (>20% = ++)
33 | 249 (LLPTGVFQV; listed as Homo sapiens) [compound 249] | “+++” (>50 = +++)
34 | 250 (LLVQEPDGLMV; listed as Homo sapiens) [compound 250] | “+++” (>50 = +++)
35 | 251 (LLYDNVPGA; listed as Homo sapiens) [compound 251] | “+++” (>50 = +++)
36 | 252 (NLLDPGSSYLL; listed as Homo sapiens) [compound 252] | “+++” (>50 = +++)
37 | 253 (NLWSVDGEVTV; listed as Homo sapiens) [compound 253] | “+++” (>50 = +++)
38 | 254 (QLIPKLIFL; listed as Homo sapiens) [compound 254] | “+++” (>50 = +++)
39 | 255 (YLFEEAISM; listed as Homo sapiens) [compound 255] | “+++” (>50 = +++)
40 | 256 (QLLPVSNVVSV; listed as Homo sapiens) [compound 256] | “+++” (>50 = +++)
41 | 258 (RLDYITAEI; listed as Homo sapiens) [compound 258] | “+++” (>50 = +++)
42 | 259 (RLLDEQFAVL; listed as Homo sapiens) [compound 259] | “+++” (>50 = +++)
43 | 260 (SLDDVEGMSV; listed as Homo sapiens) [compound 260] | “+++” (>50 = +++)
44 | 261 (SLVEAQGWLV; listed as Homo sapiens) [compound 261] | “+++” (>50 = +++)
45 | 262 (SLWNAGTSV; listed as Homo sapiens) [compound 262] | “+++” (>50 = +++)
46 | 263 (SQWEDIHVV; listed as Homo sapiens) [compound 263] | “+++” (>50 = +++)
47 | 264 (TILDYINVV; listed as Homo sapiens) [compound 264] | “+++” (>50 = +++)
48 | 265 (TLLADDLEIKL; listed as Homo sapiens) [compound 265] | “+++” (>50 = +++)
49 | 266 (TLLDQLDTQL; listed as Homo sapiens) [compound 266] | “++” (>20% = ++)
50 | 267 (TLLDWQDSL; listed as Homo sapiens) [compound 267] | “+++” (>50 = +++)
